Laboratory results reported in patent US20050106141A1 (PROCTER AND GAMBLE, published 2005).

T1: AD-HRt(mouse) (mouse, UniProt Q61645 490-1182)
T1 sequence (looked up): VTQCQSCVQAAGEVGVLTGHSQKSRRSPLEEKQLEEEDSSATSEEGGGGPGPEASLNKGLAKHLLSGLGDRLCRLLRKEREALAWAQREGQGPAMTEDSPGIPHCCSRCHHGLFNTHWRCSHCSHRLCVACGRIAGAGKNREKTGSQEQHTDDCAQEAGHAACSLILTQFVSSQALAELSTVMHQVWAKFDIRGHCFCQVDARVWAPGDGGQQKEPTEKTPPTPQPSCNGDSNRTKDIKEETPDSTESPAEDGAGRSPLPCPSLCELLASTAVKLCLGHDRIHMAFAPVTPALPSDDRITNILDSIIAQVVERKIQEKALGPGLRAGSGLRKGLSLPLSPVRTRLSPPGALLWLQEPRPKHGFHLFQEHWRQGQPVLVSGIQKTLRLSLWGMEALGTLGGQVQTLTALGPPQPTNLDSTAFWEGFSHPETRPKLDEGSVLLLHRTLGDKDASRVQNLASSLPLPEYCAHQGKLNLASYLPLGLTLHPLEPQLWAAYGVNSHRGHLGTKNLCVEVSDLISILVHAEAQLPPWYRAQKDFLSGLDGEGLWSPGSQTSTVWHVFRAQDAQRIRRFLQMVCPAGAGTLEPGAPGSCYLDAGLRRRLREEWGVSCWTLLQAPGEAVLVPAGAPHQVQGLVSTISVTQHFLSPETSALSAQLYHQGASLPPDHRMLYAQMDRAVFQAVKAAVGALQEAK

T2: LexA BD-HRt (mouse, UniProt P0A7C2 1-202; Q61645 490-1182)
T2 construct: domain: Lex A DNA BD;range 490-1182; also called BD-HRt(mouse); Lex A DNA BD-HRt
T2 sequence (looked up): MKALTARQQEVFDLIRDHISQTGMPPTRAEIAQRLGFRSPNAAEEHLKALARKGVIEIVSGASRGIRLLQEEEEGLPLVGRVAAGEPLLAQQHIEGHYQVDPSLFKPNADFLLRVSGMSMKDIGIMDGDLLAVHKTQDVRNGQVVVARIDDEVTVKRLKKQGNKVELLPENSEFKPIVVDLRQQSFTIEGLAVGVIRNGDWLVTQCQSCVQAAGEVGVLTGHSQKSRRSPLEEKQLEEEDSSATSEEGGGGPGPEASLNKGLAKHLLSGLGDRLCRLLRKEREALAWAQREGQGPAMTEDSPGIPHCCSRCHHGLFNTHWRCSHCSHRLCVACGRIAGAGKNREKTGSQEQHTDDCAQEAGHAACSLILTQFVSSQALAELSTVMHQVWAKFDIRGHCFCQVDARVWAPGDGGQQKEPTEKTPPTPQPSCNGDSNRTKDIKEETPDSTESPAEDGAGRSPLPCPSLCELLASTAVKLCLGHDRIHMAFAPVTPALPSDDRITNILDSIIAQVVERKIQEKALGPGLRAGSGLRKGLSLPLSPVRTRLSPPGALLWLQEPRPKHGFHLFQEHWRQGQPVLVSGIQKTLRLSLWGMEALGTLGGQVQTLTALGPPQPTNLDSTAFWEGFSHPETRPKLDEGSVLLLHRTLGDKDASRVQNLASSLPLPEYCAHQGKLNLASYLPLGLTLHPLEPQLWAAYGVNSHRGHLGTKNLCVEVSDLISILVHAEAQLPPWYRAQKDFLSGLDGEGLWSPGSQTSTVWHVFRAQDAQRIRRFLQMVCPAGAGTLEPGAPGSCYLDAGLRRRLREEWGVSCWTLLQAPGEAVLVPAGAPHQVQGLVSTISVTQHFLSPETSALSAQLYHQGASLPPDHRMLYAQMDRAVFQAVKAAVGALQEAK


Columns and labels:
AD-HRt(mouse) = target: T1, AD-HRt(mouse); assay: cell-based or functional assay
AD-TRβ = AD-TRβ (UniProt P04386 768-881); assay: cell-based or functional assay
LexA BD-HRt = target: T2, LexA BD-HRt; assay: yeast two-hybrid library screen; number of positive clones with this identity
From the text: Clontech Human Keratinocyte GAL4 cDNA library (complexity 2.5×10⁶) in pACT2 vector was used used to screen for HRt interacting proteins. A Leu⁻, Trp⁻ yeast strain with HIS3 and LACZ reporters for yeasts two hybrid interaction (strain L41) was first transformed with LexA BD-HRt palsmid) for Trp⁺ phenotype. The resulting L41/LexA BD-HR transformant was screened to ensure expression of LexA BD-HRt protein and also for lack of auto activation of the reporter genes HIS3 and LACZ. This strain was transformed with Keratinocyte AD-cDNA library and plated on Trp⁻Leu⁻His⁻ plate to select for clones with positive interaction. Colonies that appeared on selsctive plates were subsequently tested for LACZ expression on X-GAL plates. […] AD-plasmid was rescued from the 90 clones and retested for HRt bait dependance. […] The positive clones are expected to contain an AD-IP (interacting partner) that interacts with BD-HRt.

AD-TRβ, sequence (P04386 768-881): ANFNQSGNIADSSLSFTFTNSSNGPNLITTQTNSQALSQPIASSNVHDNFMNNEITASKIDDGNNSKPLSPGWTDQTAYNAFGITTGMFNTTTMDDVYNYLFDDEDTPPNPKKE

Binder	Hits (LexA BD-HRt)	other results
BD-VDR(mouse) (receptor, UniProt P04386 1-147, looked up) MKLLSSIEQACDICRLKKLKCSKEKPKCAKCLKNNWECRYSPKTKRSPLTRAHLTEVESRLERLEQLFLLIFPREDLDMILKMDSLQDIKALLTGLFVQDNVNKDAVTDRLASVETDMPLTLRQHRISATSSSEESSNKGQRQLTVSMEAMAASTSLPDPGDFDRNVPRICGVCGDRATGFHFNAMTCEGCKGFFRRSMKRKALFTCPFNGDCRITKDNRRHCQACRLKRCVDIGMMKEFILTDEEVQRKREMIMKRKEEEALKDSLRPKLSEEQQHIIAILLDAHHKTYDPTYADFRDFRPPIRADVSTGSYSPRPTLSFSGDSSSNSDLYTPSLDMMEPASFSTMDLNEEGSDDPSVTLDLSPLSMLPHLADLVSYSIQKVIGFAKMIPGFRDLTSDDQIVLLKSSAIEVIMLRSNQSFTLDDMSWDCGSQDYKYDITDVSRAGHTLELIEPLIKFQVGLKKLNLHEEEHVLLMAICIVSPDRPGVQDAKLVEAIQDRLSNTLQTYIRCRHPPPGSHQLYAKMIQKLADLRSLNEEHSKQYRSLSFQPENSMKLTPLVLEVFGNEIS	–	relative alpha-galactosidase activity (yeast two-hybrid reporter, assay of example 3) with 1alpha, 25-dihydroxy cholecalciferol (25 DHC) at sub-micromolar concentrations (AD-HRt(mouse)): > 3 fold; relative alpha-galactosidase activity (yeast two-hybrid reporter, assay of example 3) with 25-hydroxy cholecalciferol (25 HC) at sub-micromolar concentrations (AD-HRt(mouse)): > 3 fold; yeast two-hybrid reporter with 25 HC (AD-TRβ): ~2 fold
Homo Sapiens Protein Inhibitor of Activated STAT-3 (PIAS3) (other, UniProt Q9Y6X2 1-628, looked up, not shown: large carriers, Prey clone; extent of the clone unknown; also called AD-IP; BC030556) MAELGELKHMVMSFRVSELQVLLGFAGRNKSGRKHELLAKALHLLKSSCAPSVQMKIKELYRRRFPRKTLGPSDLSLLSLPPGTSPVGSPGPLAPIPPTLLAPGTLLGPKREVDMHPPLPQPVHPDVTMKPLPFYEVYGELIRPTTLASTSSQRFEEAHFTFALTPQQVQQILTSREVLPGAKCDYTIQVQLRFCLCETSCPQEDYFPPNLFVKVNGKLCPLPGYLPPTKNGAEPKRPSRPINITPLARLSATVPNTIVVNWSSEFGRNYSLSVYLVRQLTAGTLLQKLRAKGIRNPDHSRALIKEKLTADPDSEVATTSLRVSLMCPLGKMRLTVPCRALTCAHLQSFDAALYLQMNEKKPTWTCPVCDKKAPYESLIIDGLFMEILSSCSDCDEIQFMEDGSWCPMKPKKEASEVCPPPGYGLDGLQYSPVQGGDPSENKKKVEVIDLTIESSSDEEDLPPTKKHCSVTSAAIPALPGSKGVLTSGHQPSSVLRSPAMGTLGGDFLSSLPLHEYPPAFPLGADIQGLDLFSFLQTESQHYGPSVITSLDEQDALGHFFQYRGTPSHFLGPLAPTLGSSHCSATPAPPPGRVSSIVAPGGALREGHGGPLPSGPSLTGCRSDIISLD	1	–
Homo Sapiens DEAD (Asp-Glu-Ala-Asp) box polypeptide 3 (enzyme, UniProt O00571 1-662, looked up, not shown: large carriers, Prey clone; extent of the clone unknown; also called Homo Sapiens DEAD/H (Asp-Glu-Ala-Asp/His) Box Polypeptide 3; AD-IP) MSHVAVENALGLDQQFAGLDLNSSDNQSGGSTASKGRYIPPHLRNREATKGFYDKDSSGWSSSKDKDAYSSFGSRSDSRGKSSFFSDRGSGSRGRFDDRGRSDYDGIGSRGDRSGFGKFERGGNSRWCDKSDEDDWSKPLPPSERLEQELFSGGNTGINFEKYDDIPVEATGNNCPPHIESFSDVEMGEIIMGNIELTRYTRPTPVQKHAIPIIKEKRDLMACAQTGSGKTAAFLLPILSQIYSDGPGEALRAMKENGRYGRRKQYPISLVLAPTRELAVQIYEEARKFSYRSRVRPCVVYGGADIGQQIRDLERGCHLLVATPGRLVDMMERGKIGLDFCKYLVLDEADRMLDMGFEPQIRRIVEQDTMPPKGVRHTMMFSATFPKEIQMLARDFLDEYIFLAVGRVGSTSENITQKVVWVEESDKRSFLLDLLNATGKDSLTLVFVETKKGADSLEDFLYHEGYACTSIHGDRSQRDREEALHQFRSGKSPILVATAVAARGLDISNVKHVINFDLPSDIEEYVHRIGRTGRVGNLGLATSFFNERNINITKDLLDLLVEAKQEVPSWLENMAYEHHYKGSSRGRSKSSRFSGGFGARDYRQSSGASSSSFSSSRASSSRSGGGGHGSSRGFGGGGYGGFYNSDGYGGNYNSQGVDWWGN	2	–
Homo Sapiens Ubiquitous Receptor (receptor, UniProt P55055 1-460, looked up, not shown: large carriers, Prey clone; also called Oxysterols Receptor LXR-Beta; LXR) MSSPTTSSLDTPLPGNGPPQPGAPSSSPTVKEEGPEPWPGGPDPDVPGTDEASSACSTDWVIPDPEEEPERKRKKGPAPKMLGHELCRVCGDKASGFHYNVLSCEGCKGFFRRSVVRGGARRYACRGGGTCQMDAFMRRKCQQCRLRKCKEAGMREQCVLSEEQIRKKKIRKQQQESQSQSQSPVGPQGSSSSASGPGASPGGSEAGSQGSGEGEGVQLTAAQELMIQQLVAAQLQCNKRSFSDQPKVTPWPLGADPQSRDARQQRFAHFTELAIISVQEIVDFAKQVPGFLQLGREDQIALLKASTIEIMLLETARRYNHETECITFLKDFTYSKDDFHRAGLQVEFINPIFEFSRAMRRLGLDDAEYALLIAINIFSADRPNVQEPGRVEALQQPYVEALLSYTRIKRPQDQLRFPRMLMKLVSLRTLSSVHSEQVFALRLQDKKLPPLLSEIWDVHE	14	–
Homo Sapiens Protein Inhibitor of Activated STAT-1 (PIAS1) (other, UniProt O75925 1-651, looked up, not shown: large carriers, Prey clone; extent of the clone unknown; also called AD-IP; AF167160) MADSAELKQMVMSLRVSELQVLLGYAGRNKHGRKHELLTKALHLLKAGCSPAVQMKIKELYRRRFPQKIMTPADLSIPNVHSSPMPATLSPSTIPQLTYDGHPASSPLLPVSLLGPKHELELPHLTSALHPVHPDIKLQKLPFYDLLDELIKPTSLASDNSQRFRETCFAFALTPQQVQQISSSMDISGTKCDFTVQVQLRFCLSETSCPQEDHFPPNLCVKVNTKPCSLPGYLPPTKNGVEPKRPSRPINITSLVRLSTTVPNTIVVSWTAEIGRNYSMAVYLVKQLSSTVLLQRLRAKGIRNPDHSRALIKEKLTADPDSEIATTSLRVSLLCPLGKMRLTIPCRALTCSHLQCFDATLYIQMNEKKPTWVCPVCDKKAPYEHLIIDGLFMEILKYCTDCDEIQFKEDGTWAPMRSKKEVQEVSASYNGVDGCLSSTLEHQVASHHQSSNKNKKVEVIDLTIDSSSDEEEEEPSAKRTCPSLSPTSPLNNKGILSLPHQASPVSRTPSLPAVDTSYINTSLIQDYRHPFHMTPMPYDLQGLDFFPFLSGDNQHYNTSLLAAAAAAVSDDQDLLHSSRFFPYTSSQMFLDQLSAGGSTSLPTTNGSSSGSNSSLVSSNSLRESHSHTVTNRSSTDTASIFGIIPDIISLD	1	–
Homo Sapiens Similar to Stromal Antigen 2 (other, UniProt Q8N3U4 1-1231, looked up, not shown: large carriers, Prey clone; also called AD-IP; BC001765) MIAAPEIPTDFNLLQESETHFSSDTDFEDIEGKNQKQGKGKTCKKGKKGPAEKGKGGNGGGKPPSGPNRMNGHHQQNGVENMMLFEVVKMGKSAMQSVVDDWIESYKHDRDIALLDLINFFIQCSGCKGVVTAEMFRHMQNSEIIRKMTEEFDEDSGDYPLTMAGPQWKKFKSSFCEFIGVLVRQCQYSIIYDEYMMDTVISLLTGLSDSQVRAFRHTSTLAAMKLMTALVNVALNLSINMDNTQRQYEAERNKMIGKRANERLELLLQKRKELQENQDEIENMMNAIFKGVFVHRYRDAIAEIRAICIEEIGIWMKMYSDAFLNDSYLKYVGWTMHDKQGEVRLKCLTALQGLYYNKELNSKLELFTSRFKDRIVSMTLDKEYDVAVQAIKLLTLVLQSSEEVLTAEDCENVYHLVYSAHRPVAVAAGEFLYKKLFSRRDPEEDGMMKRRGRQGPNANLVKTLVFFFLESELHEHAAYLVDSMWDCATELLKDWECMNSLLLEEPLSGEEALTDRQESALIEIMLCTIRQAAECHPPVGRGTGKRVLTAKEKKTQLDDRTKITELFAVALPQLLAKYSVDAEKVTNLLQLPQYFDLEIYTTGRLEKHLDALLRQIRNIVEKHTDTDVLEACSKTYHALCNEEFTIFNRVDISRSQLIDELADKFNRLLEDFLQEGEEPDEDDAYQVLSTLKRITAFHNAHDLSKWDLFACNYKLLKTGIENGDMPEQIVIHALQCTHYVILWQLAKITESSSTKEDLLRLKKQMRVFCQICQHYLTNVNTTVKEQAFTILCDILMIFSHQIMSGGRDMLEPLVYTPDSSLQSELLSFILDHVFIEQDDDNNSADGQQEDEASKIEALHKRRNLLAAFCKLIVYTVVEMNTAADIFKQYMKYYNDYGDIIKETMSKTRQIDKIQCAKTLILSLQQLFNEMIQENGYNFDRSSSTFSGIKELARRFALTFGLDQLKTREAIAMLHKDGIEFAFKEPNPQGESHPPLNLAFLDILSEFSSKLLRQDKRTVYVYLEKFMTFQMSLRREDVWLPLMSYRNSLLAGGDDDTMSVISGISSRGSTVRSKKSKPSTGKRKVVEGMQLSLTEESSSSDSMWLSREQTLHTPVMMQTPQLTSTIMREPKRLRPEDSFMSVYPMQTEHHQTPLDYNRRGTSLMEDDEEPIVEDVMMSSEGRIEDLNEGMDFDTMDIDLPPSKNRRERTELKPDFFDPASIMDESVLGVSMF	4	–
